The record followed here is patent US20250277199, “NOVEL CRISPR-CAS NUCLEASES FROM METAGENOMES” (Brain Biotech AG, published 2025).

This data set has as its target T1, BMC02 (uncultured bacterium (metagenome)).
T1 chain: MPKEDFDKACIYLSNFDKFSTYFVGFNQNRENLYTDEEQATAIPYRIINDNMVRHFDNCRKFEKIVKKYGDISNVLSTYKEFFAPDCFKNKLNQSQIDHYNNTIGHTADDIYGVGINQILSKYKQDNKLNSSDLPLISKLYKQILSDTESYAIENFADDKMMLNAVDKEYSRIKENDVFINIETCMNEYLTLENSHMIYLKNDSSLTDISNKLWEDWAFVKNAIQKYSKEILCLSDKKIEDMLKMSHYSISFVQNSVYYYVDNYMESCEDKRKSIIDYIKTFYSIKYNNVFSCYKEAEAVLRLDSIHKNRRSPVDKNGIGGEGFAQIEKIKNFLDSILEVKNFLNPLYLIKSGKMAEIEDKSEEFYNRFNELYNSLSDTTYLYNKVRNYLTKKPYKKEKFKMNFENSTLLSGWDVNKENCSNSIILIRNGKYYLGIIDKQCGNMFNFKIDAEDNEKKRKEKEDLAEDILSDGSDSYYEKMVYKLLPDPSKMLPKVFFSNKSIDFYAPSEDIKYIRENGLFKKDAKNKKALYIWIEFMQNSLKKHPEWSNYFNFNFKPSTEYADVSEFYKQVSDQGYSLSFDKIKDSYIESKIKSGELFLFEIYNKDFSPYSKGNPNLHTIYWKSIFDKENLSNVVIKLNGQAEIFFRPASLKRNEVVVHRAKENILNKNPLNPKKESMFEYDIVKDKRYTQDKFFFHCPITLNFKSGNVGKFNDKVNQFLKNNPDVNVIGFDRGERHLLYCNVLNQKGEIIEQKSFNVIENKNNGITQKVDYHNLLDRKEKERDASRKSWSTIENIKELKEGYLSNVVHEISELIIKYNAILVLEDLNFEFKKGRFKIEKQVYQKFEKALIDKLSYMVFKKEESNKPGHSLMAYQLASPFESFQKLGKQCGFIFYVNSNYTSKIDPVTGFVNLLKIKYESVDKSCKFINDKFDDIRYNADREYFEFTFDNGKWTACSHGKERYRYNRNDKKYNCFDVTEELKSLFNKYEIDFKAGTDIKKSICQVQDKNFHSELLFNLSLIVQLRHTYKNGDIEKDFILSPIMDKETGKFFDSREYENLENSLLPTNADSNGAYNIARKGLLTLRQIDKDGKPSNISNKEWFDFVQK
The data set can be described thus: cell_activity; PAM not stated; E. coli depletion, 30 C. The method, then: Overnight grown pre-cultures were diluted into fresh 60 ml LB-Kanamycin (25 μg/ml) (Example 4) or LB-Kanamycin (25μg/ml)/Nourseothricin (50 μg/ml) medium (Example 5) to obtain an optical density at 600 nm (OD600) of 0.06. The inoculated medium was incubated at 30° C. on a horizontal shaker at 250 rpm until the culture reached an optical density at OD600 of 0.2. For induced BMC (NN) nuclease expression, 600 μl 20% L-(+)-arabinose (w/v) was added to the culture at a final concentration of 0.2% (v/v). The cultivation was continued until the culture reached an optical density at OD600 of 0.5. Subsequently 50 ml culture was transferred into one 50 ml conical tube and harvested by centrifugation at 4° C. for 5 min and 4000×g. Pelleted cells were resuspended in 50 ml ultrapure water (ice-cold) and centrifuged at 4° C. for 5 min and 4000×g.
This washing procedure was repeated twice. Washed cells were resuspended in 25 ml 10% (w/w) glycerin and re-centrifuged at 4° C. for 5 min and 4000×g. The pelleted cells were resuspended in 5 ml 10% (w/w) glycerin. After the final centrifugation step at 4° C. for 5 min and 4000×g, the cells were resuspended in 125 μl 10% (w/w) glycerin. Aliquots of 25 μl competent cells were stored at −80° C. until use. For the transformation procedure, aliquots of competent cells were thawed on ice and 50-100 ng plasmid DNA (CRISPR/gRNA-Ec) was added. Prepared cells were electroporated at 1800 V, 25 μF and 200 Ω in 1 mm gap size electroporation cuvettes, using the Bio-Rad Gene Pulser Xcell Electroporation System. Subsequently, 975 μL of NEB® 10-beta/Stable Outgrowth Medium was added immediately after the pulse to the transformed cells. Regeneration was done at 30° C. on a horizontal shaker at 250 rpm. Finally, 25-100 μl of the cell suspension was plated onto selective M9-Glucose agar plates supplemented with Kanamycin (25 μg/ml)/Ampicillin (100 μg/ml) (Example 4) or Kanamycin (25 μg/ml)/Ampicillin (100 μg/ml)/Nourseothrin (50 μg/ml) (Example 5). Growth of transformed E. coli cells on selective agar plates was screened for 48 h at 30° C.
As described above, each of the BMC01, BMC02, BMC03, BMC04, BMC05, BMC07, BMC08, BMC09, BMC10, BMC11, BMC12, BMC13, BMC14, or BMC15 nucleases was co-transformed into E. coli with a gRNA targeting the E. coli malQ gene to visualize a) the activity and b) the DNA targeting efficiency of the BMC nucleases.

B1: malQ gRNA (BMC stem-loop + 24 nt spacer) ; malQ protospacer (ssRNA ; dsDNA)
RNA: GAUUUCUACUAUUGUAGAUGUGGCGGUACGUUGAUGCAUCGCG
DNA 1: GTGGCGGTACGTTGATGCATCGCG
DNA 2: CGCGATGCATCAACGTACCGCCAC
B1: the activity was > 99.9 % colony reduction.
